This series deals with TNF-α (UniProt P01375 77-233). Description: electrochemical sensor (CV/EIS/DPV), displacement of aptamer from capture probe; aptamer pre-hybridized to capture probe T1 on gold electrode; 0.01 M PBS, 37 °C; TNF-α incubation in 0.01 M PBS pH 7.4, 37 °C, 2 h (1 h optimal); binding buffer listed as 10 mM Tris-HCl pH 7.4, 10 mM KCl, 10 mM MgCl2; DPV in 10x PBS. The note with it: protein: commercial; chain copies: 3; single strand; on the sensor pre-hybridized to thiolated capture probe T1 (S1), from which TNF-α displaces it.
Chain of TNF-α (P01375 77-233): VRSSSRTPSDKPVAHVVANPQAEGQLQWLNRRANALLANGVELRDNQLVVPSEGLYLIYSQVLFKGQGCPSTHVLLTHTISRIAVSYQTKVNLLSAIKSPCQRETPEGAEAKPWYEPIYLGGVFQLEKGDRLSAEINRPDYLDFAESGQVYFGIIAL

Experimental findings from publication PMC5469345, “High Sensitivity Determination of TNF-α for Early Diagnosis of Neonatal Infections with a Novel and Reusable Electrochemical Sensor” are described below.

B1: TNF-α aptamer (T2) (ssDNA)
DNA: TTTTTTTTTTTTTTTTGGTGGATGGCGCAGTCGGCGACAA
As for B1, the binding result is reported as “binds”.
